{"source": "patent US20250207095A1", "molecular_target": "4-1BB (UniProt Q07011)", "sequence (Q07011 24-255 limits assumed)": "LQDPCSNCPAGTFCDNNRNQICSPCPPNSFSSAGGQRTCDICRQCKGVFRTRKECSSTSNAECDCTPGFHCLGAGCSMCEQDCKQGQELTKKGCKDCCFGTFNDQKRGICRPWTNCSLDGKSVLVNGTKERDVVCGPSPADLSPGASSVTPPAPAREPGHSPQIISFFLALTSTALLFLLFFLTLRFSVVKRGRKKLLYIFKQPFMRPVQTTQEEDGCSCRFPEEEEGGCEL", "assay": "cell-based or functional assay", "data": [{"substance": "4-1BB ligand (from UniProt P41273 1-254)", "values": [{"measurement": "expansion of TRAC-1XX-iT cells from D35 to D42", "result": 30, "unit": "fold"}]}]}
